Reference: PMC5402964

Molecular target: α5β1 integrin (UniProt P08648)
Assay: SPR

Work on “DisBa-01 (disintegrin of Bothrops alternatus), recombinant His-tag protein (natural protein; other documents disagree on this pair)” yielded a Kd of 76.2 µM.
